Numbering of substitutions follows the chain as printed. Names may count otherwise.
T1: human IL-18BP (human, UniProt O95998 31-194)
T1 construct: UniProt printed as 095998; also called hIL-18BP
T1 sequence: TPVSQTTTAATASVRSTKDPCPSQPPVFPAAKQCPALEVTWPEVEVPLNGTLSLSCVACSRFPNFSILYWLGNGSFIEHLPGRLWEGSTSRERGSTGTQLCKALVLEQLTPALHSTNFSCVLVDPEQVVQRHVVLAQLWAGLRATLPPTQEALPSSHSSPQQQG

B1: SA301a LC-Q90A (antibody, name in Kabat numbering, V domains shown)
VH: QVQLQESGPGLVKPSQTLSLTCTVSGYSITSDYNSHWIRQPPGKGLEWIGYIHYSGSTNYNPSLKSRVTISRDTSKNQFSLKLSSVTAADTAVYYCARNYGSIYVNYFDYWGQGTLVTVSS
VL: EIVLTQSPATLSLSPGERATLSCSASSSVSYMYWYQQKPGQAPRPLIYRTSNLASGIPARFSGSGSGTDFTLTISSLEPEDFAVYYCQAYHSYPTFGGGTKVEIK
notes: IgG1 kappa
B2: SA301a LC-Q89L (antibody, V domains shown)
VH: B1 VH
VL: B1 VL with Q88L, A89Q
B3: SA301a LC-Q89S (antibody, V domains shown)
VH: B1 VH
VL: B1 VL with Q88S, A89Q
B4: SA301a LC-Q89G (antibody, V domains shown)
VH: B1 VH
VL: B1 VL with Q88G, A89Q
B5: SA301a LC-Q89K (antibody, V domains shown)
VH: B1 VH
VL: B1 VL with Q88K, A89Q
B6: SA301a LC-Q89Y (antibody, V domains shown)
VH: B1 VH
VL: B1 VL with Q88Y, A89Q
B7: SA301a LC-Q89A (antibody, V domains shown)
VH: B1 VH
VL: B1 VL with Q88A, A89Q
B8: SA301a LC-H92T (antibody, V domains shown)
VH: B1 VH
VL: B1 VL with A89Q, H91T
B9: SA301a LC-Q89M (antibody, V domains shown)
VH: B1 VH
VL: B1 VL with Q88M, A89Q
B10: SA301a LC-H92Y (antibody, V domains shown)
VH: B1 VH
VL: B1 VL with A89Q, H91Y
B11: SA301a LC-H92F (antibody, V domains shown)
VH: B1 VH
VL: B1 VL with A89Q, H91F
B12: SA301a LC-Q89V (antibody, V domains shown)
VH: B1 VH
VL: B1 VL with Q88V, A89Q
B13: SA301a LC-H92A (antibody, V domains shown)
VH: B1 VH
VL: B1 VL with A89Q, H91A
B14: SA301a LC-Q89F (antibody, V domains shown)
VH: B1 VH
VL: B1 VL with Q88F, A89Q
B15: SA301a LC-H92E (antibody, V domains shown)
VH: B1 VH
VL: B1 VL with A89Q, H91E
B16: SA301a LC-Q89N (antibody, V domains shown)
VH: B1 VH
VL: B1 VL with Q88N, A89Q
B17: SA301a LC-Q89D (antibody, V domains shown)
VH: B1 VH
VL: B1 VL with Q88D, A89Q
B18: SA301a LC-H92V (antibody, V domains shown)
VH: B1 VH
VL: B1 VL with A89Q, H91V
B19: SA301a LC-Q89E (antibody, V domains shown)
VH: B1 VH
VL: B1 VL with Q88E, A89Q
B20: SA301a LC-Y91V (antibody, name in Kabat numbering, V domains shown)
VH: B1 VH
VL: B1 VL with A89Q, Y90V
notes: IgG1 kappa
B21: SA301a LC-Q90I (antibody, name in Kabat numbering, V domains shown)
VH: B1 VH
VL: B1 VL with A89I
notes: IgG1 kappa
B22: SA301a LC-Y91R (antibody, name in Kabat numbering, V domains shown)
VH: B1 VH
VL: B1 VL with A89Q, Y90R
notes: IgG1 kappa
B23: SA301a LC-Y91E (antibody, name in Kabat numbering, V domains shown)
VH: B1 VH
VL: B1 VL with A89Q, Y90E
notes: IgG1 kappa
B24: SA301a LC-Q90M (antibody, name in Kabat numbering, V domains shown)
VH: B1 VH
VL: B1 VL with A89M
notes: IgG1 kappa
B25: SA301a LC-Q90T (antibody, name in Kabat numbering, V domains shown)
VH: B1 VH
VL: B1 VL with A89T
notes: IgG1 kappa
B26: SA301a LC-Y91A (antibody, name in Kabat numbering, V domains shown)
VH: B1 VH
VL: B1 VL with A89Q, Y90A
notes: IgG1 kappa
B27: SA301a LC-Q90G (antibody, name in Kabat numbering, V domains shown)
VH: B1 VH
VL: B1 VL with A89G
notes: IgG1 kappa
B28: SA301a LC-Q90V (antibody, name in Kabat numbering, V domains shown)
VH: B1 VH
VL: B1 VL with A89V
notes: IgG1 kappa
B29: SA301a LC-Q90D (antibody, name in Kabat numbering, V domains shown)
VH: B1 VH
VL: B1 VL with A89D
notes: IgG1 kappa
B30: SA301a LC-Q90P (antibody, name in Kabat numbering, V domains shown)
VH: B1 VH
VL: B1 VL with A89P
notes: IgG1 kappa
B31: SA301a LC-Q90H (antibody, name in Kabat numbering, V domains shown)
VH: B1 VH
VL: B1 VL with A89H
notes: IgG1 kappa
B32: SA301a LC-Q90L (antibody, name in Kabat numbering, V domains shown)
VH: B1 VH
VL: B1 VL with A89L
notes: IgG1 kappa
B33: SA301a LC-Y91G (antibody, name in Kabat numbering, V domains shown)
VH: B1 VH
VL: B1 VL with A89Q, Y90G
notes: IgG1 kappa
B34: SA301a LC-Q90R (antibody, name in Kabat numbering, V domains shown)
VH: B1 VH
VL: B1 VL with A89R
notes: IgG1 kappa
B35: SA301a LC-Q90S (antibody, name in Kabat numbering, V domains shown)
VH: B1 VH
VL: B1 VL with A89S
notes: IgG1 kappa
B36: SA301a LC-Y91K (antibody, name in Kabat numbering, V domains shown)
VH: B1 VH
VL: B1 VL with A89Q, Y90K
notes: IgG1 kappa
B37: SA301a LC-Y91F (antibody, name in Kabat numbering, V domains shown)
VH: B1 VH
VL: B1 VL with A89Q, Y90F
notes: IgG1 kappa
B38: SA301a LC-Y91P (antibody, name in Kabat numbering, V domains shown)
VH: B1 VH
VL: B1 VL with A89Q, Y90P
notes: IgG1 kappa
B39: SA301a LC-Y91I (antibody, name in Kabat numbering, V domains shown)
VH: B1 VH
VL: B1 VL with A89Q, Y90I
notes: IgG1 kappa
B40: SA301a LC-Y91T (antibody, name in Kabat numbering, V domains shown)
VH: B1 VH
VL: B1 VL with A89Q, Y90T
notes: IgG1 kappa
B41: SA301a LC-Q90Y (antibody, name in Kabat numbering, V domains shown)
VH: B1 VH
VL: B1 VL with A89Y
notes: IgG1 kappa
B42: SA301a LC-Q90E (antibody, name in Kabat numbering, V domains shown)
VH: B1 VH
VL: B1 VL with A89E
notes: IgG1 kappa
B43: SA301a LC-Q90F (antibody, name in Kabat numbering, V domains shown)
VH: B1 VH
VL: B1 VL with A89F
notes: IgG1 kappa
B44: SA301a LC-Y91Q (antibody, name in Kabat numbering, V domains shown)
VH: B1 VH
VL: B1 VL with A89Q, Y90Q
notes: IgG1 kappa
B45: SA301a LC-Q90K (antibody, name in Kabat numbering, V domains shown)
VH: B1 VH
VL: B1 VL with A89K
notes: IgG1 kappa
B46: SA301a LC-Y91M (antibody, name in Kabat numbering, V domains shown)
VH: B1 VH
VL: B1 VL with A89Q, Y90M
notes: IgG1 kappa
B47: SA301a LC-Y91S (antibody, name in Kabat numbering, V domains shown)
VH: B1 VH
VL: B1 VL with A89Q, Y90S
notes: IgG1 kappa

Each binder was assayed against T1, human IL-18BP (assay: BLI, apparent KD).

| Binder | Kd |
| --- | --- |
| B1 | 1.07 nM |
| B2 | 0.85 nM |
| B3 | 0.28 nM |
| B4 | 0.32 nM |
| B5 | 0.97 nM |
| B6 | 0.35 nM |
| B7 | 0.39 nM |
| B8 | 0.15 nM |
| B9 | 0.49 nM |
| B10 | 0.1 nM |
| B11 | 0.7 nM |
| B12 | 0.51 nM |
| B13 | 0.95 nM |
| B14 | 0.4 nM |
| B15 | 0.36 nM |
| B16 | 0.28 nM |
| B17 | 0.02 nM |
| B18 | 0.2 nM |
| B19 | 0.46 nM |
| B20 | 1.85 nM |
| B21 | 0.24 nM |
| B22 | 0.18 nM |
| B23 | 0.31 nM |
| B24 | 0.27 nM |

| Binder | Kd |
| --- | --- |
| B25 | 0.4 nM |
| B26 | 1.08 nM |
| B27 | 0.78 nM |
| B28 | 0.29 nM |
| B29 | 0.31 nM |
| B30 | 0.09 nM |
| B31 | 0.25 nM |
| B32 | 0.13 nM |
| B33 | 0.23 nM |
| B34 | 0.51 nM |
| B35 | 0.41 nM |
| B36 | 1.13 nM |
| B37 | 0.26 nM |
| B38 | 0.24 nM |
| B39 | 0.42 nM |
| B40 | 0.45 nM |
| B41 | 1.04 nM |
| B42 | 0.18 nM |
| B43 | 0.65 nM |
| B44 | 0.24 nM |
| B45 | 0.1 nM |
| B46 | 0.22 nM |
| B47 | 0.33 nM |
